In patent US11732048B2, “Anti-axl antagonistic antibodies” (BERGEN TEKNOLOGIOVERFØRING AS, priority 2016, dated 2023):
“Also recorded” adds a separate entry of the source.

B1: murine 10G5: mouse monoclonal anti-human Axl antibody from hybridoma WR-10G5-E5; VH SEQ ID NO: 28, VL SEQ ID NO: 29 (antibody, listed as Mus musculus, V domains shown)
VH: QVQLQQSGAELVRPGASVKLSCKASGYSFTDFYINWVRQRPGQGLEWIARIFPGGDNTYYNEKFKGKATLTAEESSSTAYIQLSSLTSEDSAVYFCARRGLYYAMDYWGQGISVTVSS
VL: DVLMTQTPLSLPVSLGDQASISCRSSQSLVHSNGIPYLHWYLQKPGQSPKLLIYRVSNRFSGVPDRFSGSGSGTDFTLKISRVEAEDLGVYFCSQGTHVPPTFGGGTKLEIK
modifications: (1)..(118) Mus musculus 10G5 VH domain; (1)..(112) Mus musculus 10G5 VL domain
B2: c10G5: chimeric (mouse variable/human constant) IgG1 antibody with the 10G5 VH and VL (antibody, V domains shown)
VH: QVQLQQSGAELVRPGASVKLSCKASGYSFTDFYINWVRQRPGQGLEWIARIFPGGDNTYYNEKFKGKATLTAEESSSTAYIQLSSLTSEDSAVYFCARRGLYYAMDYWGQGISVTVSS
VL: DVLMTQTPLSLPVSLGDQASISCRSSQSLVHSNGIPYLHWYLQKPGQSPKLLIYRVSNRFSGVPDRFSGSGSGTDFTLKISRVEAEDLGVYFCSQGTHVPPTFGGGTKLEIK

Tests used:
cyno-Axl (cyno-Axl-Fc) = assay: Biacore binding analysis on immobilised cynomolgus Axl; design: species or system cynomolgus monkey (Macaca fascicularis); details: 10 μg/mL in HBS-EP, 25° C.
Chain of cyno-Axl (cyno-Axl-Fc) (as listed by the source): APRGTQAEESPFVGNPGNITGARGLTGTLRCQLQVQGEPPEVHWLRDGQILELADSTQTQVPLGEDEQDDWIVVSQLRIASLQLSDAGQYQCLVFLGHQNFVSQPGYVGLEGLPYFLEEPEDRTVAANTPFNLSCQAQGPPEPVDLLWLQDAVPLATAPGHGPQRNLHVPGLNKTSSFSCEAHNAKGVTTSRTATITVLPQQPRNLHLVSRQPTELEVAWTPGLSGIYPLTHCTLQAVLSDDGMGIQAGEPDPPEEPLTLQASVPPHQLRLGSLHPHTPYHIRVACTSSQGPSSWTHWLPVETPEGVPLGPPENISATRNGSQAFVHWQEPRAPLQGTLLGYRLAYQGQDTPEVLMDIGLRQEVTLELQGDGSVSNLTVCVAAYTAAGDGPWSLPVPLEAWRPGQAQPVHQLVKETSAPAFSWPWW
Experimental: The sequence of Axl receptor from cynomolgus monkey (Macaca fascicularis; SEQ ID NO: 27) was retrieved from WO2009062690A1. Based on the sequence, recombinant extracellular domain of cyno-Axl was generated by transient expression in CHO cells as a fusion protein with human Fc. The recombinant cyno-Axl-Fc was purified to homogeneity using Protein A-Sepharose (GE Healthcare). The binding experiments were performed using Biacore 3000 instrument (GE Healthcare) at 25° C. The soluble recombinant antigens corresponding to human Axl (rhAxl-Fc chimera; R&D Systems, Cat. no. 154-AL) and cyno-Axl were immobilized on the surface of CM5 sensor chip using amine coupling at the surface density of 775 and 880 RU, respectively. The Biacore runs were performed in an automatic mode using Binding analysis wizard.
The sample containing MAb 10G5 or human Axl-specific MAb 5F11 (control) at concentration 10 μg/mL in HBS-EP buffer (GE Healthcare) was injected over the surfaces with immobilized antigens at flow rate of 30 μL/min for 3 min (association) followed by 5 min dissociation.

[1] = target: T1, rhAxl-Fc (binding of Gas6 / MAB154) (Homo sapiens, UniProt P30530); assay: Biacore competitive binding study, MAb 10G5 as first sample (Example 6); details: rhAxl-Fc saturated with 10G5 (160 nM), second sample 25 μg/mL
T1 construct: Fc
Experimental: A competitive binding study was performed using Biacore 3000 instrument (GE Healthcare) and Binding Analysis wizard with several cycles of two samples injection. As a first sample, a saturating concentration of MAb 10G5 (160 nM or 24 μg/mL) was injected over the surface of a CM5 sensor chip coated with rhAxl-Fc (using amine coupling) for 3 min at flow rate of 30 μL/min followed by 2.5 min stabilization (HBS-EP buffer alone) before the injection of the second sample. The following second samples were used: recombinant human (rh) Gas6 (R&D Systems, Cat. no. 885-GS), recombinant mouse (rm) Gas6 (R&D Systems, Cat. no. 986-GS/CF) and a panel of anti-Axl antibodies, such as MAB154 (R&D Systems, Cat. no. MAB154), and 10G5; all at concentration 25 μg/mL. The second sample was injected for 3 min, followed by 2.5 min stabilization (buffer alone) and regeneration of the surface by 30 sec injection of a regeneration solution (10 mM HCl, 1 M NaCl) at flow rate 50 μL/min.

[2] = target: T2, Axl receptor protein in MBA-MD-231 cells (Homo sapiens, UniProt P30530); assay: Western blot of Axl receptor protein after antibody treatment; type: cell-based; details: 100 μg/mL, 20 hrs, versus irrelevant IgG or MAb #3
T2 construct: The expression of Axl receptor protein in MBA-MD-231 cells treated with different antibodies was examined by Western blot analysis; endogenous in cells; host or cells: MDA-MB-231 (printed 'MBA-MD-231') human breast carcinoma cells
Experimental: The expression of Axl receptor protein in MBA-MD-231 cells treated with different antibodies was examined by Western blot analysis. The cells were seeded in a 6-well plate at density of 5×10^5 cells per well and cultured overnight before treatment initiation. The cells were treated for 20 hrs in the presence of isotype control (mouse IgG2b), anti-Axl antibodies (10G5 and MAb #3) at concentrations of 100 μg/mL or multikinase inhibitor Foretinib (targets Met, Ron, Axl, Tie-2, and VEGFR2) at a concentration of 0.5 μM followed by harvesting by centrifugation at 1,200 rpm for 5 min and washing with sterile PBS. The cells were collected by centrifugation and resuspended in NP40-lysis buffer followed by 30 min incubation on ice. The cell lysates were cleared by centrifugation (12,000 rpm, 4° C., 5 min) and the protein concentrations were determined using BCA protein assay. The cell lysate samples comprising 35 μg of total protein were denatured in presence of the reducing agent (Life Technologies) and loaded into the wells of NuPAGE 10% Bis-Tris polyacrylamide (PAA) gel, 1.0 mm×12 well (Invitrogen). The electrophoresis was performed using Bis-Tris SDS running buffer under the recommended conditions (Life Technologies) and the proteins were transfer on PVDF membrane, as described for 2 gels in a manual for XCell II™ Blot Module (Invitrogen) using the transfer buffer with 20% methanol. […]

A549 tumours = assay: A549 human NSCLC xenograft in mice (Examples 14, 16, 17, 18); type: in vivo, mouse; details: nude mice, 20 mg/kg i.p. twice weekly, after four weeks of treatment, versus vehicle
Text: SCID mice were implanted subcutaneously (s.c.) into the flank with 5×10^6 A549 cells resuspended in serum-free medium/Matrigel (1:1).

Molecule | Binding to Axl from cynomolgus monkey (cyno-Axl (cyno-Axl-Fc)) | Competition with MAB154 for Axl binding [1] | Inhibition of Gas6 (human and murine) binding to rhAxl [1] | Axl receptor protein level [2] | Inhibition of A549 tumour growth (A549 tumours)
B1 | bind strongly; also recorded: strong and specific interaction | did no inhibit; also recorded: did not compete | cannot be bound; also recorded: inhibited | significant reduction in the amount of Axl receptor protein | –
B2 | – | – | – | – | around 40%
